Among the data in PMC11554226 (2024) are Kd values, retold here.

The target of the test is receptor-binding domain (RBD) of SARS-CoV-2 prototype strain (SARS-CoV-2 prototype strain, UniProt P0DTC2). Briefly: SPR.

Numbering of substitutions follows the chain as printed. Numbers in names are those of the source.

B1: Tnb04-1 R50Q (nanobody-Fc) (Fc fusion)
chain: EVQLVESGGGLVQPGGSLRLSCAASGSISTLNVMGWYRQAPGKQRELVAQITLDGRPEYADSVKGRFTITKDGAQSTLYLQMNNLKPEDTAVYFCKLENGGFFYYWGQGTQVTVSS
B1: the affinity, expressed as Kd, was 0.471 nM.

B2: Tnb04-1 R56S (nanobody-Fc) (Fc fusion)
chain: B1 chain with Q50R, R56S
Regarding B2, the Kd is 0.535 nM.
